# Experimental data published in PMC6983471.
# How the values were obtained:
# [1] = biological target: VEK50[RH2/AA] (VEK50^ΔRH2), VEK50 with R30H31 replaced by Ala-Ala (Streptococcus pyogenes (isolate AP53)); assay: AUC
# [2] = biological target: VEK50[RH1/AA] (VEK50^ΔRH1), VEK50 with R17H18 replaced by Ala-Ala (Streptococcus pyogenes (isolate AP53)); assay: AUC
# [3] = biological target: VEK50[RH2/AA] (VEK50^ΔRH2), VEK50 with R30H31 replaced by Ala-Ala (Streptococcus pyogenes (isolate AP53)); assay: NMR titration
# [4] = biological target: VEK50[RH1/AA] (VEK50^ΔRH1), VEK50 with R17H18 replaced by Ala-Ala (Streptococcus pyogenes (isolate AP53)); assay: NMR titration
# [5] = biological target: VEK50[RH2/AA] (VEK50^ΔRH2), VEK50 with R30H31 replaced by Ala-Ala (Streptococcus pyogenes (isolate AP53)); assay: ITC
# [6] = biological target: VEK50[RH1/AA] (VEK50^ΔRH1), VEK50 with R17H18 replaced by Ala-Ala (Streptococcus pyogenes (isolate AP53)); assay: ITC
substance,measurement,setting,value
"K2hPg, kringle 2 domain of human plasminogen, triple variant C4G/E56D/L72Y (domain or fragment)",stoichiometry N (K2hPg per peptide),[1],1
same,stoichiometry N (K2hPg per peptide),[2],1
same,stoichiometry N (K2hPg per peptide),[3],1
same,stoichiometry N (K2hPg per peptide),[4],1
same,Kd,[5],42 nM
same,stoichiometry N (K2hPg per peptide),[5],1
same,Kd,[6],9 nM
same,stoichiometry N (K2hPg per peptide),[6],1
